In patent publication US20210087268A1:

Target: T1, TIGIT expressed on cells (TIGIT-expressing effector cell line of the Promega kit; TIGIT-overexpressing NK92 cell line) (UniProt Q495A1)
T1 sequence (looked up): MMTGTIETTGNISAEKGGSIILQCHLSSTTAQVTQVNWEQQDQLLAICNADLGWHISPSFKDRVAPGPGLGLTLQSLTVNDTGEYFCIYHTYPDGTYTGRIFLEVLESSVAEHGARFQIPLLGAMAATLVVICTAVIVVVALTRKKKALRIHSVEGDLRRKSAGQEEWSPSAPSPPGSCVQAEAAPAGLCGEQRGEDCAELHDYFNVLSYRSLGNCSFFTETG
Assay: cell-based or functional assay

Sequence of 10A7 antibody (VH): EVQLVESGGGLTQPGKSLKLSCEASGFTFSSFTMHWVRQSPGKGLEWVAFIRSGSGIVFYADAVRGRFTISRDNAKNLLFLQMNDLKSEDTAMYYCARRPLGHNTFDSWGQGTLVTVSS
Sequence of 10A7 antibody (VL): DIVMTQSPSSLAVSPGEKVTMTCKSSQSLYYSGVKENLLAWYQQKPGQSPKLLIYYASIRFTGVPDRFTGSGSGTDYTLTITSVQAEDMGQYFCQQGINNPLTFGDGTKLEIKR

- binding inhibition (EC50), TIGIT/CD155 blockade assay, luminescence fold response: 752 nM
Substance: 10A7 antibody
